# Experimental data as given in patent publication US9725518B2, “Antibodies that bind to Jagged 1” (Cancer Research Technology Limited, priority 2013, dated 2017).
# Positions count from the first letter of the chain named.
# B1: J1-183D variant 1: humanised/de-immunised J1-183D: J1-183D_VL_1 + J1-183D_VH_1 (antibody, V domains shown)
# VH: QVQLVQSGAELKKPGASVKVSCKVSGYAFTDYAIHWIRQAPGQGLEWMGIINTYYGDSKYNQKFKDRVTMTVDKSTSTAYMELSSLRSEDTAVYYCARGYDGFAYWGQGTLVTVSSASTKGP
# VL: DIQMTQSPSSLSASVGDRVTITCRTSENIYSYLTWYQQKPGKAPKLLVYNAKILAAGVPSRFSGSGSGTDFTLTISSLQPEDFATYYCQHHYDIPWTFGGGTKLEIKRT
# B2: J1-183D variant 8: humanised/de-immunised J1-183D: J1-183D_VL_2 + J1-183D_VH_4 (antibody, V domains shown)
# VH: B1 VH with L11V, V24A, A28T, I37V, N61A, K65Q, D66G, K74T
# VL: B1 VL with V48I, I53T, A56S
# B3: J1-183D variant 9: humanised/de-immunised J1-183D: J1-183D_VL_3 + J1-183D_VH_1 (antibody, V domains shown)
# VH: B1 VH
# VL: B1 VL with V48I, A55D, A56S
# B4: J1-65D variant 5: humanised/de-immunised J1-65D: J1-65D_VL_2 + J1-65D_VH_1 (antibody, V domains shown)
# VH: QVQLVQSGAELKKPGSSVKVSCKASGYTFTDYEMHWVRQAPGQGLEWMGAIQPGGGGTAYNQKFKGRVTLTADKSTSTAYMELSSLRSEDTAVYYCTRRGYDDYPFAYWGQGTLVTVSSASTKGP
# VL: DIQMTQSPSSLSASVGDRVTITCRASGNIHNYLAWYQQKPGKAPKLLIYNAKTLADAVPSRFSGSGSGTDYTLTISSLQPEDFATYYCQHFWSAPWTFGGGTKLEIKRT
# B5: J1-65D variant 12: humanised/de-immunised J1-65D: J1-65D_VL_3 + J1-65D_VH_4 (antibody, V domains shown)
# VH: B4 VH with L11V, N61A, K65Q, L70I
# VL: B4 VL with G100Q
# B6: J1-65D variant 8: humanised/de-immunised J1-65D: J1-65D_VL_2 + J1-65D_VH_4 (antibody, V domains shown)
# VH: B4 VH with L11V, N61A, K65Q, L70I
# VL: B4 VL
# B7: J1-65D variant 9: humanised/de-immunised J1-65D: J1-65D_VL_3 + J1-65D_VH_1 (antibody, V domains shown)
# VH: B4 VH
# VL: B4 VL with G100Q
# Test system: J1-induced Notch signalling
# Assay: Luciferase assay, LS174T RBPJ reporter stimulated with J1 protein
# Type: cell-based, human
# Conditions: humanised/chimeric mAbs 10 μg/ml, NE3-Fc; DBZ control
# Method: FIG. 9. […] (A) The colorectal cancer cell line LS174T expressing luciferase under the control of Notch co-factor RBPJ was stimulated with mammalian cell-expressed soluble J1 proteins (NE3-Fc and NE12-Fc) or a control protein in the presence of J1 mAbs (10 μg/ml), and luciferase activity was measured. […] (C) Breast cancer MDA-MB-231 cells were cultured with J1 mAbs. The expression level of the Notch target gene HES1 was measured by qPCR using β2m as the control gene. In all experiments the γ-secretase inhibitor DBZ was used as a positive control for pan Notch inhibition and a control mAb (IgG2b or IgG1) or no treatment (NT) were negative controls.
# FIG. 20. Inhibition of human Jagged 1/Notch signalling by humanised and de-immunised J1-mAbs in vitro. The colorectal cancer cell line LS174T expressing luciferase under the control of Notch co-factor RbPJ was stimulated with mammalian cell-expressed recombinant J1 protein (NE3-Fc protein, right bar for each treatment) or a control protein (left bar) in the presence of J1 mAbs (10 μg/ml), and luciferase activity was measured. The parental murine monoclonal antibody (Mo), Murine IgG1, DMSO and DBZ were used as controls.
# Having established that the J1 mAbs were able to block the binding of the J1 ligand to its receptor N1 their effect on the activity of the Notch signalling pathway was investigated. The human colorectal cancer cell line LS174T, stably expressing a luciferase reporter gene under control of Notch co-factor RBPJ, was stimulated with two forms of immobilised J1 protein: N-terminus to EGF3 and N-terminus to EGF12. […] Importantly, the best two J1 mAbs (J1-65D and J1-183D) were also tested against other Notch ligands in order to verify ligand specificity.
# Prior to experiment, clear bottom 96-well plates (CELLSTAR) wells were coated with either J1-ECD fragments (NE3-Fc and NE12-Fc), other Notch-ligands (J2 or DLL4; both from R&D) or control protein (mlgG2b) at the concentration of 5 μg/ml in 0.1% BSA-PBS (overnight incubation at 4° C.). LS174T colorectal cancer cells, expressing the luciferase gene under control of the Notch cofactor RbPJ, were then plated (4×10^4 cells/well) in the presence of different mAbs (10 μg/ml) or DBZ (100 nM). Luciferase activity was then quantified 24 hours later using the Bright-Glo Luciferase Assay System (Promega).
row,Molecule,inhibition of J1-induced luciferase activity
1,B1,inhibited as effectively as by the parental murine mAb
2,B2,inhibited as effectively as by the parental murine mAb
3,B3,inhibited as effectively as by the parental murine mAb
4,B4,inhibited as effectively as by the parental murine mAb
5,B5,inhibited as effectively as by the parental murine mAb
6,B6,inhibited as effectively as by the parental murine mAb
7,B7,inhibited as effectively as by the parental murine mAb

# Biological target: T1, N1 binding to cell surface expressed hJ1 (Homo sapiens, UniProt P78504)
# T1 construct: cell expressed full length human J1 (hJ1; HEK293 transfectants); expressed in transfected cells; host or cells: HEK293
# Assay: Notch binding blocking assay (FACS): N1 EGF11-13 beads staining human J1-expressing cells
# Parameters: key: +: Complete blocking; X: No blocking
# Conditions: final antibody concentration 0.2 μg/ml
# Outline: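 E. coli-expressed, refolded human N1 EGF11-13 (411-526), biotinylated on avidin-coated fluorescent beads, stained human J1-transfected HEK293 cells with hybridoma supernatant or purified antibody diluted in HBSS/10% FCS. Purified mAbs titrated in dilution series; bead binding read by flow cytometry.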
# T1 sequence (P78504 34-1218): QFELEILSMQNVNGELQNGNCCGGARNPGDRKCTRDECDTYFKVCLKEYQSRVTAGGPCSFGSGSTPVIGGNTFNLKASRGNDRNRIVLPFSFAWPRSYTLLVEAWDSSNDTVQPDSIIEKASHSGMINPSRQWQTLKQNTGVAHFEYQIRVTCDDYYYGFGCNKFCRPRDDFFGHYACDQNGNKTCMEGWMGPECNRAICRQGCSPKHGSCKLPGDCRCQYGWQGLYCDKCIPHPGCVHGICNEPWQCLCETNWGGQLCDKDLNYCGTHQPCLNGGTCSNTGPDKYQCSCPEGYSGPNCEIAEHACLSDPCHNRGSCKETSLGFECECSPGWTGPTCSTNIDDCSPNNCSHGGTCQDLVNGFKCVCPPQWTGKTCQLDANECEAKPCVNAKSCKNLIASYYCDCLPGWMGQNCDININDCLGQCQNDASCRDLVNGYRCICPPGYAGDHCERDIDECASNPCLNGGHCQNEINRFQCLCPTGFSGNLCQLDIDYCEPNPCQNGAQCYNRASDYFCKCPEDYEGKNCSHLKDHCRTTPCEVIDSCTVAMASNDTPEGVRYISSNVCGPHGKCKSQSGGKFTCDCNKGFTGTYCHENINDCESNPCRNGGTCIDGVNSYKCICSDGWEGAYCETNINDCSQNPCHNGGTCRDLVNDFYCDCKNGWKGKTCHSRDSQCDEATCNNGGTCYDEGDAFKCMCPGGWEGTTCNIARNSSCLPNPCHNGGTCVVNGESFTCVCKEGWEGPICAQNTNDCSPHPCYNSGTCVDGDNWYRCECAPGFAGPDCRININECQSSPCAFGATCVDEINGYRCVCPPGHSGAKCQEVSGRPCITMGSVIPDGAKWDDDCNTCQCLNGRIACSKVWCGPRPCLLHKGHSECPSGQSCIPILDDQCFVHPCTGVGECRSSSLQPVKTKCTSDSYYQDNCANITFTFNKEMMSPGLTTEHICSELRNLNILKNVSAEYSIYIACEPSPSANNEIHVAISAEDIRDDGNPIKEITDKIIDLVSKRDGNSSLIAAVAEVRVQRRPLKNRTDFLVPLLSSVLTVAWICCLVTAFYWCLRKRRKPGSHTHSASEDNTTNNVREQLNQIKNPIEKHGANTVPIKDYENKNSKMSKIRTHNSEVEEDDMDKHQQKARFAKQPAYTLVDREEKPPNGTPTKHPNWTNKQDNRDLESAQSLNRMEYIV
row,Molecule,Blocking of Notch1 binding to cell surface Jagged 1
1,B1,X
2,B2,X
3,B3,X
4,B4,X
5,B5,X
6,B6,X
7,B7,X

# Same assay, conditions: final antibody concentration 0.4 μg/ml
row,Molecule,Blocking of Notch1 binding to cell surface Jagged 1
1,B1,+ (Complete blocking)
2,B2,+ (Complete blocking)
3,B3,+ (Complete blocking)
4,B4,+ (Complete blocking)
5,B5,+ (Complete blocking)
6,B6,+ (Complete blocking)
7,B7,+ (Complete blocking)

# Same assay, conditions: final antibody concentration 0.6 μg/ml
row,Molecule,Blocking of Notch1 binding to cell surface Jagged 1
1,B1,+ (Complete blocking)
2,B2,+ (Complete blocking)
3,B3,+ (Complete blocking)
4,B4,+ (Complete blocking)
5,B5,+ (Complete blocking)
6,B6,+ (Complete blocking)
7,B7,+ (Complete blocking)

# Same assay, conditions: final antibody concentration 1.0 μg/ml
row,Molecule,Blocking of Notch1 binding to cell surface Jagged 1
1,B1,+ (Complete blocking)
2,B2,+ (Complete blocking)
3,B3,+ (Complete blocking)
4,B4,+ (Complete blocking)
5,B5,+ (Complete blocking)
6,B6,+ (Complete blocking)
7,B7,+ (Complete blocking)

# Test system: not listed separately
# Assay: Soluble aggregates of transiently expressed antibodies
# Type: physicochemical
# Conditions: Protein A purified antibody
# Source text: The protein yield of these antibodies, their levels of soluble aggregates and their binding affinity to the immunogen (J1-DE3) are illustrated in (Table 6).
row,Molecule,% soluble aggregate [%]
1,B1,3.65
2,B2,0.93
3,B3,3.49
4,B4,0
5,B5,0.47
6,B6,0
7,B7,0

# Test system: MDA-MB-231 spheroids
# Assay: Spheroid assay (3-D growth), MDA-MB-231
# Type: cell-based, human
# Conditions: humanised variants 5 μg/ml
# Source text: Similar findings were also reported for the Merck anti-N1 mAbs when tested on the LS-1034 cell line. As cell-cell contact is required to activate Notch signalling a spheroid-based 3-D growth model was used to test the ability of the J1 mAbs to block tumour growth. Furthermore, the 3-D model better mimics in vivo conditions including hypoxia and acidosis, allowing evaluation of the mAbs effect in a more realistic setting. Spheroids were generated from MDA-MB-231 breast cancer cells and the ability of different concentrations of the J1-65D mAb to inhibit their growth was evaluated.
# Cells were harvested and resuspended in 2.5% Matrigel (BD)-complete DMEM medium. Cell suspension was plated on low-adherence 96-well plates (Corning) (200 μl/well) and spheroids, of approximately fixed cell number (5×10^3 cells for MDA-MB-231 and MDA-MB-468 cell lines; 2×10^3 for MCF7 cells) were then generated by spinning plates at 1800 rpm for 10 minutes. The following day, pictures of the spheroids were taken (day 1) and treatments were added (mAbs were used at 10 μg/ml [5 μg/ml for humanised antibodies] while DBZ was used at the concentration of 100 nM). In some experiments Paclitaxel (1 nM) and Doxorubicin (20 nM) were used in combination with J1-65D mAb treatment. Every 2 days pictures were taken and half of the medium was replaced with fresh one containing mAb/drug. At the end of the experiment, spheroids were either lysed for RNA extraction, were processed and paraffin-embedded for immunohistochemical analysis or were dissociated by pipetting and trypsinization into single cell suspensions for FACS analysis. Spheroid size was evaluated by image analysis using ImageJ software.
row,Molecule,spheroid growth inhibition
1,B1,most comparable efficacy to the original murine antibody
2,B2,increasingly less effect
3,B3,increasingly less effect
4,B4,most comparable to the parental mAb
5,B5,slightly reduced ability to inhibit spheroid growth
6,B6,slightly reduced ability to inhibit spheroid growth
7,B7,most comparable to the parental mAb
